The source of these data is patent US20100093090A1, “METHOD AND KIT FOR EFFICIENT REPROGRAMMING OF SOMATIC CELLS” (priority 2008, published 2010).

Series [1] concerns iPS cell generation efficiency. The experiment in a line: iPS cell generation in presence of HDAC inhibitors (VPA, SBHA, Butyrate). Format: cell-based. Here is the method:
FIG. 10. The colony number shown are those induced from 10^4 cells plated on the feeder cells by different combinations of factors. IPS colony numbers were counted on day 25 post-transduction. (O: OCT4; S:SOX2; K: KLF4; G: GFP; P: P53siRNA; U: UTF1). (A) In presence of VPA, iPS cell generation efficiency could be enhanced by UTF1 or P53 siRNA, or their combination. […] VS: VPA+SBHA; VB: VPA+Butyrate. The working concentrations of VPA, SBHA and Butyrate in this study were 0.5 mM, 2 μM, 0.1 mM, respectively.
Recently, it is reported that iPS cells could be generated when contacting with HDAC inhibitors (and/or other compounds) by a much higher efficiency. We further tested whether UTF1 and p53 siRNA would still work in the context of HDAC inhibitors.

Series [2] has as its system human adult foreskin fibroblast (hAFF) cells. The experiment in a line: Human iPS cell generation from fibroblasts by lentiviral transduction of reprogramming factors (colony counting, AP staining, GFP silencing). Format: cell-based.
Protocol: 5×10^4 cells were plated onto a 10-cm dish. Shown are numbers of total colonies and AP-highly positive colonies (in parenthesis) counted on day 18 post-transduction. “4” indicates the reported four reprogramming factors OCT4 (O), SOX2 (S), KLF4 (K) and c-MYC (M). […] (C-E): Total colony numbers (left panels), highly AP-positive colony numbers (middle panels) and iPS colony numbers (right panels). The colony number shown are those induced from 10^5 cells plated on the feeder cells by different combinations of factors. The results of three independent experiments are shown with different colors. […] Numbers were counted on day 25 post-transduction; (D) The six factors (4PU) combination minus the reported four reprogramming factors, respectively. (Da and Db) Numbers were counted on day 25 post-transduction. (Dc) Numbers were counted on day 35 post-transduction. […] Numbers were counted on day 35 post-transduction.
Lentiviral vector containing OCT4, SOX2, c-MYC, KLF4, UTF1, p53 siRNA and control p53 siRNA respectively (15 μg) together with pMDLg/pRRE, RSV/Rev and VSV-G (FIG. 13 A, B, C) (5 μg for each), were respectively transfected into 293T cells with the Ca3(PO4)2-method in 10-cm dishes and incubated overnight. 12 hours later, the medium was changed and virus was collected after subsequent 36 hours cultivation. Viral supernatant was collected and filtered through 0.45 μm filters (Millipore) and then placed onto target fibroblasts supplemented with 10 ng/μl polybrene (Sigma-Aldrich). Typically, 1×10^5 fibroblasts in a well of 6-well plate were infected with 250 μl viral supernatant of each gene. The viral supernatant was changed with fibroblast culture medium after 12 hours. […] 5-6 days later, the infected cells were collected, counted, and plated onto MEF feeders (typically 2×10^4 to 1×10^5 cells for a 10-cm dish). […] The efficiency to generate iPS cells was calculated according to Takahashi's method, by which the number of cell colonies was counted and divided by the number of cells plated onto feeders (Takahashi et. al., 2007) (FIGS. 1C, 1D, 1E, 5C, and 5D). […]
Another series has as its system p53. The series can be described thus: Knockdown of p53 expression by p53 shRNA in hAFF. It is filed as cell-based, human. To be noted: nonsense siRNA as control.
Setting [3] is: with the four factors, day 25 post-transduction.

B1: p53 siRNA: lentiviral pLL3.7-encoded shRNA against p53; DNA sequence encoding it GACTCCAGTGGTAATCTACT (SEQ ID NO: 6 and 7) (nucleic acid)
DNA 1: TGACTCCAGTGGTAATCTACTTCAAGAGAGTAGATTACCACTGGAGTCTTTTTTC
DNA 2: TCGAGAAAAAAGACTCCAGTGGTAATCTACTCTCTTGAAGTAGATTACCACTGGAGTCA
With B1, in series [1] (VPA 0.5 mM, 10^4 cells plated, day 25 post-transduction), the “reprogramming efficiency when VPA was added” value is given as “enhance the reprogramming efficiency significantly”. The “reprogramming efficiency in presence of two HDAC inhibitor combination” value in series [1] (VPA+SBHA or VPA+Butyrate, 0.5 mM, 2 μM, 0.1 mM, day 25) was “enhances reprogramming efficiency”. Moreover, the “iPS cells obtained out of every 100,000 human adult fibroblast cells after infection” value in series [2] (together with Oct4, Sox2 and Klf4, without c-Myc, about 1 month post-infection, on average) is “about 30”. Moreover, in series [2] (setting [3]), the “highly AP-positive colony numbers and iPS colony numbers” value was “did not further exert its effect”; the “total numbers of cell colonies” value is “dramatically enhanced”. The “knockdown of p53 expression” value with p53 is on record as “efficient”.
